As a reminder, the Kd is the free concentration of one partner at which half of the binding sites on the other are occupied at equilibrium, for simple one-to-one binding. One may read the koff as the first-order rate constant of dissociation. One may read the kon as the second-order rate constant of association.

This note sets out measurements from patent US20160046724A1 (Novartis, published 2016).

The labels stand for the following.
B2: BCMA-Fc antigen (Fc fusion)
chain: AGQCSQNEYFDSLLHACIPCQLRCSSNTPPLTCQRYCNASVTNSVKG
notes: Bought reagent; also called BCMA fc fusion protein; recombinant BCMA-Fc; not shown: Fc region

The test “BCMA-Fc antigen” has as its target B2. Briefly: flow cytometry of CAR-transduced JNL cells stained with BCMA-Fc antigen. As to the method:
Jurkat-NFAT-luciferase (JNL) cells transduced with BCMA CAR constructs were evaluated for activation in response to BCMA-expressing target cell lines. Small-scale viral supernatant samples were generated in HEK293T cells for transduction of JNL cells. On Day 3 following transduction, BCMA CAR-transduced JNL cells were incubated with target cells at an effector-to-target (E:T) ratio of 6:1. Target cell lines were: K562-BCMA (engineered to stably express BCMA), K562 (parental line), and BCMA positive multiple myeloma cell lines, NCI-H929 and RPMI 8226. JNL activation was measured using Bright-Glo substrate (Promega) on Day 4. CAR expression on transduced JNL was assessed on Day 7 with BCMA-Fc antigen and Biotin-Protein L reagent (Table 7).
In general terms: A flow cytometer gives signals particle by particle.

Another test has as its target T1, BCMA-10 CAR.
T1 construct: also called 139109 Full CAR; EG63-98LB
The test can be described thus: CAR-expressing T cells incubated with recombinant BCMA-Fc; staining of CAR+ cells.

Test [1] concerns the target T2, BCMA (recombinant, form not given) (UniProt Q02223 1-54, limits assumed).
T2 construct: also called BCMA substrate; Bio-BCMA
T2 sequence (looked up): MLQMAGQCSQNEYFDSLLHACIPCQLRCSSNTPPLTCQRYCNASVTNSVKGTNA
The test can be described thus: affinity assay, 1:1 binding fit; instrument and sample format not stated.

B1: BCMA-14 CAR (other)
chain: EVQLVETGGGLVQPGGSLRLSCAVSGFALSNHGMSWVRRAPGKGLEWVSGIVYSGSTYYAASVKGRFTISRDNSRNTLYLQMNSLRPEDTAIYYCSAHGGESDVWGQGTTVTVSSASGGGGSGGRASGGGGSETTLTQSPATLSVSPGERATLSCRASQSVGSNLAWYQQKPGQGPRLLIYGASTRATGIPARFSGSGSGTEFTLTISSLQPEDFAVYYCQQYNDWLPVTFGQGTKVEIKTTTPAPRPPTPAPTIASQPLSLRPEACRPAAGGAVHTRGLDFACDIYIWAPLAGTCGVLLLSLVITLYCKRGRKKLLYIFKQPFMRPVQTTQEEDGCSCRFPEEEEGGCELRVKFSRSADAPAYKQGQNQLYNELNLGRREEYDVLDKRRGRDPEMGGKPRRKNPQEGLYNELQKDKMAEAYSEIGMKGERRRGKGHDGLYQGLSTATKDTYDALHMQALPPR
notes: also called 139113 Full CAR; HJ64-62PB
With B1, in the test with BCMA-Fc antigen, the “% CAR+ (BCMA-Fc detection)” value was found to be 31.8%.
Turning to B2, the binding result in the test with BCMA-10 CAR is “binds”.

B3: BCMA-13 CAR (other)
chain: QVQLVESGGGLVQPGGSLRLSCAVSGFALSNHGMSWVRRAPGKGLEWVSGIVYSGSTYYAASVKGRFTISRDNSRNTLYLQMNSLRPEDTAIYYCSAHGGESDVWGQGTTVTVSSASGGGGSGGRASGGGGSDIRLTQSPSPLSASVGDRVTITCQASEDINKFLNWYHQTPGKAPKLLIYDASTLQTGVPSRFSGSGSGTDFTLTINSLQPEDIGTYYCQQYESLPLTFGGGTKVEIKTTTPAPRPPTPAPTIASQPLSLRPEACRPAAGGAVHTRGLDFACDIYIWAPLAGTCGVLLLSLVITLYCKRGRKKLLYIFKQPFMRPVQTTQEEDGCSCRFPEEEEGGCELRVKFSRSADAPAYKQGQNQLYNELNLGRREEYDVLDKRRGRDPEMGGKPRRKNPQEGLYNELQKDKMAEAYSEIGMKGERRRGKGHDGLYQGLSTATKDTYDALHMQALPPR
notes: also called 139112 Full CAR; KG66-98AB
As to B3, the “% CAR+ (BCMA-Fc detection)” value in the test with BCMA-Fc antigen came to 32.7%.

B4: BCMA-15 CAR (other)
chain: EVQLVESGGGLVQPGGSLRLSCAVSGFALSNHGMSWVRRAPGKGLEWVSGIVYSGSTYYAASVKGRFTISRDNSRNTLYLQMNSLRPEDTAIYYCSAHGGESDVWGQGTTVTVSSASGGGGSGGRASGGGGSEIVLTQSPGTLSLSPGERATLSCRASQSIGSSSLAWYQQKPGQAPRLLMYGASSRASGIPDRFSGSGSGTDFTLTISRLEPEDFAVYYCQQYAGSPPFTFGQGTKVEIKTTTPAPRPPTPAPTIASQPLSLRPEACRPAAGGAVHTRGLDFACDIYIWAPLAGTCGVLLLSLVITLYCKRGRKKLLYIFKQPFMRPVQTTQEEDGCSCRFPEEEEGGCELRVKFSRSADAPAYKQGQNQLYNELNLGRREEYDVLDKRRGRDPEMGGKPRRKNPQEGLYNELQKDKMAEAYSEIGMKGERRRGKGHDGLYQGLSTATKDTYDALHMQALPPR
notes: also called 139114 Full CAR; PY43-48LB
For the molecule B4, the “% CAR+ (BCMA-Fc detection)” value with BCMA-Fc antigen worked out at 36.9%.

B5: BCMA-12 CAR (other)
chain: EVQLLESGGGLVQPGGSLRLSCAVSGFALSNHGMSWVRRAPGKGLEWVSGIVYSGSTYYAASVKGRFTISRDNSRNTLYLQMNSLRPEDTAIYYCSAHGGESDVWGQGTTVTVSSASGGGGSGGRASGGGGSDIVMTQTPLSLSVTPGQPASISCKSSQSLLRNDGKTPLYWYLQKAGQPPQLLIYEVSNRFSGVPDRFSGSGSGTDFTLKISRVEAEDVGAYYCMQNIQFPSFGGGTKLEIKTTTPAPRPPTPAPTIASQPLSLRPEACRPAAGGAVHTRGLDFACDIYIWAPLAGTCGVLLLSLVITLYCKRGRKKLLYIFKQPFMRPVQTTQEEDGCSCRFPEEEEGGCELRVKFSRSADAPAYKQGQNQLYNELNLGRREEYDVLDKRRGRDPEMGGKPRRKNPQEGLYNELQKDKMAEAYSEIGMKGERRRGKGHDGLYQGLSTATKDTYDALHMQALPPR
notes: also called 139111 Full CAR; HU13-58ZB
Consider B5, for which, in the test with BCMA-Fc antigen, the “% CAR+ (BCMA-Fc detection)” value is 23.4%.

B6: BCMA-4NP (sample in the affinity and competition assays) (scFv)
scFv: QVQLVQSGAEVKKPGSSVKVSCKASGGTFSNYWMHWVRQAPGQGLEWMGATYRGHSDTYYNQKFKGRVTITADKSTSTAYMELSSLRSEDTAVYYCARGAIYNGYDVLDNWGQGTLVTVSSGGGGSGGGGSGGGGSGGGGSDIQMTQSPSSLSASVGDRVTITCSASQDISNYLNWYQQKPGKAPKLLIYYTSNLHSGVPSRFSGSGSGTDFTLTISSLQPEDFATYYCQQYRKLPWTFGQGTKLEIKR
notes: also called BCMA-4NP control sample
As for B6, in test [1], the Kd was found to be 100 pM, the koff worked out at 0.000172 s⁻¹ and the association rate constant (kon) is 1.58e+06 M⁻¹ s⁻¹.

B7: BCMA-4NP tool CAR (other, not shown: a dimerising Fc or GST)
chain: QVQLVQSGAEVKKPGSSVKVSCKASGGTFSNYWMHWVRQAPGQGLEWMGATYRGHSDTYYNQKFKGRVTITADKSTSTAYMELSSLRSEDTAVYYCARGAIYNGYDVLDNWGQGTLVTVSSGGGGSGGGGSGGGGSGGGGSDIQMTQSPSSLSASVGDRVTITCSASQDISNYLNWYQQKPGKAPKLLIYYTSNLHSGVPSRFSGSGSGTDFTLTISSLQPEDFATYYCQQYRKLPWTFGQGTKLEIKR
notes: Tool CAR with humanized murine anti-BCMA scFv (VH and VL from WO2012/163805); also called 126021
As for B7, in the test with BCMA-Fc antigen, the “% CAR+ (BCMA-Fc detection)” value was determined as 28.3%.
